Test results reported in patent US20140079753A1, “BMP BINDING PEPTIDES” (Affinergy, LLC, priority 2011, published 2014).
Each block holds one molecule with its values, some of them ahead of it.

Tests used:
[1] = target: T1, BMP2 (Homo sapiens, UniProt P12643); assay: BMP2 binding ELISA of synthetic truncation peptides; design: key: (−) no binding; (+) binding similar to that of full-length SEQ ID NO: 148 binding; (−/+) binding decreased relative to full-length SEQ ID NO: 148 binding; conditions: relative to full-length SEQ ID NO: 148, ELISA
T1 construct: purchased MEDTRONIC, INC
T1 sequence (P12643 283-396): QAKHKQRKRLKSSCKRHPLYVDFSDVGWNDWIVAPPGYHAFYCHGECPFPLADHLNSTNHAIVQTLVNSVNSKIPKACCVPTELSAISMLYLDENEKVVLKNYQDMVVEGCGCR
Experimental: The relative binding affinity of synthetic BMP binding peptides SEQ ID NOs: 54-56 for BMP2 is shown in FIG. 17 (SEQ ID NO: 54 (Peptide 1); SEQ ID NO: 55 (Peptide 2); SEQ ID NO: 56 (Peptide 3)). Briefly, the results shown in FIG. 17 were generated by immobilizing biotinylated BMP binding peptides on streptavidin coated plates. Serial dilutions of 100 nM, 20 nM, 4 nM, 0.8 nM, 0.16 nM, 0.032 nM 0.006 nM, and 0.001 nM of BMP-2 were incubated with the immobilized BMP binding peptides for 60 minutes, washed 5 times, and bound BMP quantified using ELISA using mouse anti-BMP2 antibody and anti-mouse IgG-alkaline phosphatase conjugate. In addition, the specificity of BMP binding peptide binding SEQ ID NO: 54 to various members of the BMP family was performed in a similar manner by titrating BMP2, BMP3, BMP5, BMP6, GDF5, GDF7, TGFb1, TGFb3, and PDGF-BB (see FIG. 18).
(§1) For the truncation analysis, peptides with one or more N or C-terminal deletions of SEQ ID NO: 148 were synthesized and tested for BMP2 binding using an ELISA assay. The truncation peptides are shown in Table 5 below along with the relative BMP2 binding activity that was measured for each of the peptides according to the procedure described herein above. The relative BMP2 binding activity is depicted as follows: (−) no binding; (+) binding similar to that of full-length SEQ ID NO: 148 binding; (−/+) binding decreased relative to full-length SEQ ID NO: 148 binding.

[2] = test system: adipose derived stem cells (ASCs); assay: Phage whole cell ELISA for ASC binding; conditions: ranking among SEQ ID NO: 1 mutagenesis variants of Table 2
Experimental: Peptides that bind adipose derived stem cells (ASCs) were identified by phage display biopanning. ASCs were culture amplified from processed liposuction aspirate (<3 passages) (ZEN-BIO, Research Triangle Park, N.C.). After biopanning, individual plaques were picked, grown overnight, and tested for ASC binding activity using whole cell ELISA according to the following procedure. Phage supernatant was incubated for 30 min at room temperature with ASC monolayers established by overnight culture in 96 well plates. Cells were washed four times with Dulbecco's Phosphate Buffered Saline (DPBS) containing 2% FBS, then incubated with 100 μl of horseradish peroxidase conjugated anti-M13 antibody. After 30 minutes at room temperature, cells were washed four times with DPBS containing 2% FBS. M13 antibody binding was detected by the addition of 3,3′,5,5′-Tetramethylbenzidine (TMB). Blue reaction product, indicating positive binding phage, was measured by absorbance at 370 nm in a microplate reader. For the phage displaying ASC binding activity, DNA sequences were analyzed and translated into peptide sequences using Vector NTI DNA Analysis software and are shown below in Table 1.
Mutagenesis of Cell Binding Peptide Sequence SEQ ID NO: 1. A focused phage display library was generated around the cell binding sequence SEQ ID NO: 1 with each nucleotide position varying in identity at a ratio of 70:10:10:10, with the original nucleotide being the dominant form. This is considered a form of “light” mutagenesis, retaining the majority of residue identities with a few amino acid identity changes. The construction of this “degenerate” phage library was performed according to the methods described in Kay et al., 1996. Three rounds of phage display biopanning were performed on ASCs to enrich for positive binding sequences. Phage showing positive binding to ASCs, identified by whole cell ELISA, were re-amplified, retested, and submitted for DNA sequencing to determine the insert amino acid sequences. In FIG. 14 the single letter amino acid sequence of SEQ ID NO: 1 is shown at the top in white letters with black shading. The phage that retained cell binding activity to adipose derived stem cells (ASCs) and fibroblasts are listed below SEQ ID NO: 1 with original amino acids in white with black shading. Amino acid substitutions are shown in black letters with white shading.

[3] = test system: rat fibroblasts; assay: Cell capture by biotinylated peptide on streptavidin plate (CELLTITER GLO); format: cell-based; conditions: 45 min room temperature, cellular ATP, FIG. 15
Experimental: (§2) In this experiment, the ability of biotinylated cell binding peptides SEQ ID NOs: 1 and 2 to capture ASCs and fibroblasts from a single cell suspension onto a solid support was examined. The cell binding peptides were biotinylated as described herein at Example 2. The cell binding peptides and control peptides lacking cell binding activity were added to a 96 well plate containing immobilized streptavidin. After 30 min at room temperature, excess peptide was washed away with PBS+0.1% Tween 20, followed by 2 washes with PBS. Dilutions of single cell suspensions of either human ASCs (hASCs), rabbit ASCs, rat fibroblasts, or human dermal fibroblasts (hDermFib) were added to the peptide coated wells and incubated for 45 min at room temperature with gentle shaking. Wells were washed 3 times with DPBS+2% FBS. The number of attached cells was determined by measuring cellular ATP with CELLTITER GLO reagent from PROMEGA.

[4] = test system: human ASCs (hASCs); assay: as above; format: cell-based; conditions: 45 min room temperature, cellular ATP, FIG. 15
Experimental: as §2

[5] = test system: rabbit ASCs; assay: as above; format: cell-based; conditions: 45 min room temperature, cellular ATP, FIG. 15
Experimental: as §2

[6] = test system: human dermal fibroblasts (hDermFib); assay: as above; format: cell-based; conditions: 45 min room temperature, cellular ATP, FIG. 15
Experimental: as §2

[7] = test system: dermal fibroblasts; assay: Flow cytometry binding of biotinylated peptides to cells (Neutravidin-PE); conditions: biotinylated peptide 25 μM, 30 min at 4° C, percent positivity vs Neutravidin-PE alone; data not shown
Text: (§3) Synthetic biotinylated cell binding peptides SEQ ID NOs: 1 and 2 were examined for their ability to specifically bind ASCs compared to a number of other cells types including bone marrow mesenchymal stem cells (MSCs), dermal fibroblasts, red blood cells, monocytes, lymphocytes granulocytes, and platelets. The cell binding peptides were biotinylated as described herein at Example 2. Cultured cells of each type were either purchased (dermal fibroblasts) or isolated from human bone marrow (MSCs) or human blood. Cells were first harvested with 2 mM EDTA in DPBS and resuspended at 10^6/mL in PBS+2% fetal bovine serum (FBS). An aliquot of cells ([…]) was incubated in 50 μL of peptide solution (25 μM in PBS+FBS) for 30 min at 4° C. Cells were then washed twice in PBS+2% FBS with 300×g centrifugation for 5 min between washes. Fluorescently-tagged neutravidin (Neutravidin-PE from INVITROGEN) was then added to the cells to label biotinylated peptide bound to cells. Neutravidin-PE was diluted 1:250 from stock and applied at 50 μL to cells. Cells were then washed in PBS+FBS, and acquired on a BD FACSARRAY. Peptide reactivity was then measured as percent positivity relative to Neutravidin-PE staining without the addition of biotinylated peptide.

[8] = test system: human ASCs; assay: as above; conditions: biotinylated peptide 25 μM, 30 min at 4° C, percent positivity vs Neutravidin-PE alone; data not shown
Text: as §3

[9] = target: T2, BMP2 (MEDTRONIC, INC.) (UniProt P12643 283-396, biotinylated with NHS-biotin (average of one biotin per protein molecule) in the phage ELISA; not biotinylated in the peptide ELISA); assay: ELISA of synthetic truncation peptides on BMP2; legend in paragraph 124: (-) no binding
T2 construct: also called bone morphogenic protein 2
Experimental: as §1

BMP2 binding [1]: −
Molecule: 195 (WDDWIGY) [compound 195]

BMP2 binding [1]: −
Molecule: 196 (WDDWIG) [compound 196]

BMP2 binding [1]: −
Molecule: 197 (IWDDWI) [compound 197]

binding result [9]: no binding
B1: Truncation peptide SEQ ID NO: 187 (peptide)
peptide: DDWIGYSR
modifications: C-terminal GSSGK(biotin) or other spacer group possible; not stated for this assay

binding result [9]: no binding
B2: Truncation peptide SEQ ID NO: 193 (peptide)
peptide: IWDDWIGYS
modifications: C-terminal GSSGK(biotin) or other spacer group possible; not stated for this assay

binding result [9]: no binding
B3: Truncation peptide SEQ ID NO: 194 (peptide)
peptide: IWDDWIGY
modifications: C-terminal GSSGK(biotin) or other spacer group possible; not stated for this assay

binding result [9]: no binding
B4: Truncation peptide SEQ ID NO: 196 (peptide)
peptide: WDDWIG
modifications: C-terminal GSSGK(biotin) or other spacer group possible; not stated for this assay
notes: also called WDDWIG

binding result [9]: no binding
B5: Truncation peptide SEQ ID NO: 185 (peptide)
peptide: IWDDWIGYSR
modifications: C-terminal GSSGK(biotin) or other spacer group possible; not stated for this assay

binding result [9]: no binding
B6: Truncation peptide SEQ ID NO: 197 (peptide)
peptide: IWDDWI
modifications: C-terminal GSSGK(biotin) or other spacer group possible; not stated for this assay
notes: also called IWDDWI

binding result [9]: no binding
B7: Truncation peptide SEQ ID NO: 186 (peptide)
peptide: WDDWIGYSR
modifications: C-terminal GSSGK(biotin) or other spacer group possible; not stated for this assay

binding result [9]: no binding
B8: Truncation peptide SEQ ID NO: 195 (peptide)
peptide: WDDWIGY
modifications: C-terminal GSSGK(biotin) or other spacer group possible; not stated for this assay
notes: also called WDDWIGY

binding result [9]: no binding
B9: Truncation peptide SEQ ID NO: 188 (peptide)
peptide: DWIGYSR
modifications: C-terminal GSSGK(biotin) or other spacer group possible; not stated for this assay
notes: also called DWIGYSR

Further lines, the molecule ahead of its results:

Molecule: 148 (SIWDDWIGYSR) [compound 148]
BMP2 binding [1]: +

Molecule: 185 (IWDDWIGYSR) [compound 185]
BMP2 binding [1]: −

Molecule: 186 (WDDWIGYSR) [compound 186]
BMP2 binding [1]: −

Molecule: 187 (DDWIGYSR) [compound 187]
BMP2 binding [1]: −

Molecule: 188 (DWIGYSR) [compound 188]
BMP2 binding [1]: −

Molecule: 189 (SIWDDWIGYS) [compound 189]
BMP2 binding [1]: +

Molecule: 190 (SIWDDWIGY) [compound 190]
BMP2 binding [1]: +

Molecule: 191 (SIWDDWIG) [compound 191]
BMP2 binding [1]: −/+

Molecule: 192 (SIWDDWI) [compound 192]
BMP2 binding [1]: −/+

Molecule: 193 (IWDDWIGYS) [compound 193]
BMP2 binding [1]: −

Molecule: 194 (IWDDWIGY) [compound 194]
BMP2 binding [1]: −

Molecule: SAFHSSHDSIGVFIN [SEQ ID NO: 21]
binding affinity for ASCs [2]: highest binding affinity

Molecule: SFWHVTHDSTGVLIR [SEQ ID NO: 4]
binding affinity for ASCs [2]: highest binding affinity

Molecule: SHCVLGHDGRSRCII [SEQ ID NO: 2]
capture of rat fibroblasts [3]: without exhibiting significant binding | capture of human ASCs [4]: behaved similarly | capture of rabbit ASCs [5]: behaved similarly | capture of human fibroblasts [6]: behaved similarly | binding to dermal fibroblasts [7]: significant binding | binding to human ASCs [8]: significant binding

Molecule: SNWHITHDSIGVLVR [SEQ ID NO: 3]
binding affinity for ASCs [2]: highest binding affinity

Molecule: SNWTSSHDDIGVFLR [SEQ ID NO: 29]
binding affinity for ASCs [2]: highest binding affinity

Molecule: SSFHISHDNIGVFVR [SEQ ID NO: 9]
binding affinity for ASCs [2]: highest binding affinity

Molecule: SSWHISHDDIGVFIR [SEQ ID NO: 6]
binding affinity for ASCs [2]: highest binding affinity

Molecule: SSWHISHDSIGVLIR [SEQ ID NO: 1]
capture of rat fibroblasts [3]: to a lesser extent | capture of human ASCs [4]: capture human ASCs | capture of rabbit ASCs [5]: to a lesser extent | binding to dermal fibroblasts [7]: significant binding | binding to human ASCs [8]: significant binding
